Laboratory results published in patent US20100056445A1, “ADIPONECTIN FOR THE TREATMENT AND DIAGNOSIS OF ALBUMINURIA” (THOMAS JEFFERSON UNIVERSITY, priority 2006, published 2010).

Tested on: podocyte monolayer
Assay: Albumin permeability across differentiated podocyte monolayer (Transwell)
Format: cell-based, mouse
Details: adiponectin (globular or full length) 3 μg/ml, serum free, vs. control
Procedure: Podocyte cell culture: Conditionally immortalized mouse podocytes were kindly provided by Dr. Peter Mundel (Albert Einstein College of Medicine, Bronx, N.Y.) and were cultured as previously described (27). The cells harbor a temperature-sensitive variant of the SV40 large T antigen (tsA58) that is inducible by γ-interferon and stable at 33° C. but rapidly degraded at 37° C. (27). At 33° C., the large T antigen allows for cellular proliferation. The proliferating cells are maintained in collagen I—coated flasks in RPMI-1640 media supplemented with 10% FBS and 10 units/ml mouse recombinant γ-interferon. When the cells have reached confluence, they are passaged and allowed to differentiate at 37° C. for 8-10 days without γ-interferon in Dulbecco's modified Eagle's medium containing 5.5 mmol/l glucose and 5% FCS. For the permeability assay a modification of a previously published protocol (28) was adopted. Differentiated podocytes (0.2×10^6 podocytes/well) plated on collagen coated 24 well Transwell plates (Corning) were serum-starved ovenight when confluent. Cells were then modulated with globular adiponectin (PepROTech Inc.) with or without 1 mM adenosine 9-p-D-arabinofuranoside (ARA-A) (Sigma, St. Louis, Mo.), for 24 h. Cells were then washed twice with PBS supplemented with 1 mM MgCl2 and 1 mM CaCl2. The upper compartment was refilled with 0.25 ml RPMI 1640 alone and the lower compartment with 0.5 ml RPMI 1640 supplemented with 40 mg/ml BSA and incubated for 2 hour at 37° C. Total protein concentration in the upper compartment was determined using a Bio-Rad protein assay (Bio-Rad Laboratories, Hercules, Calif.).

B1: adiponectin: 30 kDa adipocyte-secreted protein; in the first series of tests the recombinant globular domain was used, later gAd or fAd (protein, UniProt Q15848 19-244, looked up)
Adiponectin: ETTTQGPGVLLPLPKGACTGWMAGIPGHPGHNGAPGRDGRDGTPGEKGEKGDPGLIGPKGDIGETGVPGAEGPRGFPGIQGRKGEPGEGAYVYRSAFSVGLETYVTIPNMPIRFTKIFYNQQNHYDGSTGKFHCNIPGLYYFAYHITVYMKDVKVSLFKKDKAMLFTYDQYQENNVDQASGSVLLHLEVGDQVWLQVYGEGERNGLYADNDNDSTFTGFLLYHDTN
  Permeability of albumin across a podocyte monolayer: reduced
